According to patent US20240141059A1 (Bristol-Myers Squibb, published 2024):
Several values for one entry are separate records, joined by “and”; a condition that tells them apart may be missing. Identical values can stand only once. Like-named read-outs stand apart in the source and are kept apart here.

T1: N-hCD73-his (human, UniProt P21589 26-336, limits assumed)
T1 construct: monomeric in solution by SEC-MALS; also called N-terminal domain of hCD73
T1 sequence (looked up): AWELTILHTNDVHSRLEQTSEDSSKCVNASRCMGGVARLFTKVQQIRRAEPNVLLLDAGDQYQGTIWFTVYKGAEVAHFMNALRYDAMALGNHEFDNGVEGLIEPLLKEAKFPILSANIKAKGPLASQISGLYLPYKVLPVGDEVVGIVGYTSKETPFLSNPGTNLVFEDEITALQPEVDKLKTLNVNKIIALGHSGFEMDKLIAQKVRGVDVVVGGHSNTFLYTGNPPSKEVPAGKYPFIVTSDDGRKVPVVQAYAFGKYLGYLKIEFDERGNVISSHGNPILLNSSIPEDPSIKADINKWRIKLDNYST

T2: hCD73-his (human, UniProt P21589 26-546)
T2 construct: range 26-546; also called full length extracellular domain of human-CD73
T2 sequence (looked up): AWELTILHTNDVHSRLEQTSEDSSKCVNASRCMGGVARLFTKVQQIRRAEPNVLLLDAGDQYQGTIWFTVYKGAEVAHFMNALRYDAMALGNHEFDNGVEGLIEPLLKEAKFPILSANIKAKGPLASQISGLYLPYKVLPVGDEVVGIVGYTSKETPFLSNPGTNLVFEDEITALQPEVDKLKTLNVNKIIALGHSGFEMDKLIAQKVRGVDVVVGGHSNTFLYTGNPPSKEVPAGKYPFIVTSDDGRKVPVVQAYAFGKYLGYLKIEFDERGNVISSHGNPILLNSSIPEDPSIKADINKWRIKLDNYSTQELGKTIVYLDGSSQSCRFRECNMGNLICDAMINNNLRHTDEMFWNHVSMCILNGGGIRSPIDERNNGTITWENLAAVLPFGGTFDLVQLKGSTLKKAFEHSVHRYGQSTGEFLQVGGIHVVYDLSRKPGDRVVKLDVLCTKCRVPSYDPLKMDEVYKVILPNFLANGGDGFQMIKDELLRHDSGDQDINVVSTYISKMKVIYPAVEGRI

T3: human CD73 on cells (human, UniProt P21589 27-549)
T3 sequence (looked up): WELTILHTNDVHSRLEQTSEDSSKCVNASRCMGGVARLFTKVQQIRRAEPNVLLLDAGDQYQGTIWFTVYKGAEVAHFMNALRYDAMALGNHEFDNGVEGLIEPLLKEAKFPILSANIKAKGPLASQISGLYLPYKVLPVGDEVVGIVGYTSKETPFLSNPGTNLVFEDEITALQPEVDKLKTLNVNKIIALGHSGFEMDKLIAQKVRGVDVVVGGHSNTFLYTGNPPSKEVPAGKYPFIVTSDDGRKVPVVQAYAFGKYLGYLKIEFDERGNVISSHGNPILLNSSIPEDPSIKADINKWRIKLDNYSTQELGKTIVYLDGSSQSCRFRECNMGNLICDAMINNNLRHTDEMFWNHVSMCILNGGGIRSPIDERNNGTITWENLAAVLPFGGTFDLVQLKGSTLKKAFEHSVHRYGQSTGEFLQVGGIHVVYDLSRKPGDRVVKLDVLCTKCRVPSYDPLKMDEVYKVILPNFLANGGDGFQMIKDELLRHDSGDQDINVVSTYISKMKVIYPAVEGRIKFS

B1: CD73.3-IgG1.1 (antibody, V domains shown)
VH: EVQLVESGGGLVQPGRSLRLSCAASGFTFDDYAMHWVRQAPGKGLEWVSGISWKSGSIGYADSVKGRFTISRDNAKNSLYLQMNSLRAEDTVLYYCVKGYYVILTGLDYWGQGTLVTVSS
VL: not shown
notes: also called CD73.3-IgG1.1f; 3-Vh-hHC-IgG1.1f/4C3Vk1
B2: CD73.10-IgG2-C219S (antibody)
heavy: QVQLVESGGGVVQPGRSLRLSCAASGFTFSNYGMHWVRQAPGKGLEWVAVIWYDESNKYYPDSVKGRFTISRDNSKNTLYLQMNSLRAEDTAVYYCARGGSSWYPDSFDIWGQGTMVTVSSASTKGPSVFPLAPCSRSTSESTAALGCLVKDYFPEPVTVSWNSGALTSGVHTFPAVLQSSGLYSLSSVVTVPSSNFGTQTYTCNVDHKPSNTKVDKTVERKSCVECPPCPAPPVAGPSVFLFPPKPKDTLMISRTPEVTCVVVDVSHEDPEVQFNWYVDGVEVHNAKTKPREEQFNSTFRVVSVLTVVHQDWLNGKEYKCKVSNKGLPAPIEKTISKTKGQPREPQVYTLPPSREEMTKNQVSLTCLVKGFYPSDIAVEWESNGQPENNYKTTPPMLDSDGSFFLYSKLTVDKSRWQQGNVFSCSVMHEALHNHYTQKSLSLSPG
light: not shown
notes: also called CD73.10-IgG2CS; CD73.10-Vh-hHC-IgG2-C219S
B3: CD73.10-IgG2-C219S-IgG1.1 (antibody)
heavy: QVQLVESGGGVVQPGRSLRLSCAASGFTFSNYGMHWVRQAPGKGLEWVAVIWYDESNKYYPDSVKGRFTISRDNSKNTLYLQMNSLRAEDTAVYYCARGGSSWYPDSFDIWGQGTMVTVSSASTKGPSVFPLAPCSRSTSESTAALGCLVKDYFPEPVTVSWNSGALTSGVHTFPAVLQSSGLYSLSSVVTVPSSNFGTQTYTCNVDHKPSNTKVDKTVERKSCVECPPCPAPPVAGPSVFLFPPKPKDTLMISRTPEVTCVVVDVSHEDPEVKFNWYVDGVEVHNAKTKPREEQYNSTYRVVSVLTVLHQDWLNGKEYKCKVSNKALPSSIEKTISKAKGQPREPQVYTLPPSREEMTKNQVSLTCLVKGFYPSDIAVEWESNGQPENNYKTTPPMLDSDGSFFLYSKLTVDKSRWQQGNVFSCSVMHEALHNHYTQKSLSLSPG
light: not shown
notes: also called CD73.10-IgG2CS-IgG1.1f; CD73.10-Vh-hHC-IgG2-C219S-IgG1.1f
B4: CD73.4-IgG2-C219S-IgG1.1f (antibody)
heavy: QVQLVESGGGVVQPGRSLRLSCAASGFTFSNYGMHWVRQAPGKGLEWVAVILYDGSNKYYPDSVKGRFTISRDNSKNTLYLQMNSLRAEDTAVYYCARGGSSWYPDSFDIWGQGTMVTVSSASTKGPSVFPLAPCSRSTSESTAALGCLVKDYFPEPVTVSWNSGALTSGVHTFPAVLQSSGLYSLSSVVTVPSSNFGTQTYTCNVDHKPSNTKVDKTVERKSCVECPPCPAPPVAGPSVFLFPPKPKDTLMISRTPEVTCVVVDVSHEDPEVKFNWYVDGVEVHNAKTKPREEQYNSTYRVVSVLTVLHQDWLNGKEYKCKVSNKALPSSIEKTISKAKGQPREPQVYTLPPSREEMTKNQVSLTCLVKGFYPSDIAVEWESNGQPENNYKTTPPVLDSDGSFFLYSKLTVDKSRWQQGNVFSCSVMHEALHNHYTQKSLSLSPGK
light: not shown
notes: also called CD73.4-IgG2.3G1.1f-KH; CD73.4-IgG2CS-IgG1.1f

How the values were obtained:
[1] = target: T1, N-hCD73-his; assay: DLS, target:mAb 2:1, 8 uM + 4 uM; unit from the text
Procedure: (§1) The structure and oligomeric state of CD73/antibody complexes in solution were examined by SEC-MALS and DLS.
(§2) Dynamic light scattering (DLS) studies were performed on a Wyatt DynaPro® plate reader in 384 well plates at 25° C. Experimental parameters were 20 acquisitions of 5 s each per measurement, and measurements were recorded in quadruplicate, with the average and standard deviation reported. Intensity autocorrelation functions were fitted using the “Regularization” algorithm in the Dynamics® software (Wyatt Technologies®).

[2] = target: T1, N-hCD73-his; assay: SEC-MALS, target:mAb 2:1, 8 uM + 4 uM
Procedure: as §1
(§3) The oligomeric state of CD73/antibody complexes were examined by size-exclusion chromatography coupled to an in-line multi-angle light scattering detector (SEC-MALS). Isocratic separations were performed on a Shodex PROTEIN KW-803 column connected to an Prominence Shimadzu UFLC in buffer containing 200 mM K₂HPO₄, 150 mM NaCl, pH 6.8, containing 0.02% Na azide (0.1 μm filtered) running at 0.5 mL/min. Samples were injected onto the column using a SIL-20AC Prominence Shimadzu® autosampler, and data were obtained from three online detectors connected in series: a Prominence SPD-20AD diode array UV/vis spectrophotometer followed by a Wyatt miniDAWN™ TREOS Multi-Angle Light Scattering Detector then a Wyatt Optilab T-rEX Refractive Index Detector® instrument. Data were collected and analyzed using Astra® (Wyatt) and Labsolutions® (Shimadzu) software.

[3] = target: T2, hCD73-his; assay: SEC-MALS, target:mAb 1:1, 4 uM + 4 uM
Procedure: as §1, §3

[4] = target: T2, hCD73-his; assay: DLS, target:mAb 1:1, 4 uM + 4 uM; unit from the text
Procedure: as §1, §2

[5] = target: T3, human CD73 on cells; assay: cell-based or functional assay
[6] = target: T2, hCD73-his; assay: SEC-MALS, target:mAb 1:1, 2.5 uM + 2.5 uM
Procedure: as §1, §3

[7] = target: T2, hCD73-his; assay: DLS, target:mAb 1:1, 2.5 uM + 2.5 uM; unit from the text
Procedure: as §1, §2

[8] = target: T3, human CD73 on cells; assay: cell-based or functional assay; remark: listed apart in the source
[9] = target: T1, N-hCD73-his; assay: SPR, mAb captured on protein A
Procedure: The affinity of the antibodies for human CD73 was measured to determine whether the change of the constant region affects them. The affinities were determined by Surface Plasmon Resonance (SPR) as follows. […] For these experiments, protein A (Pierce) was immobilized to a density of 3000-4000 RU on flow cells 1˜4 of a CMS sensor chip (GE Healthcare) using standard ethyl(dimethylaminopropyl) carbodiimide (EDC)/N-hydroxysuccinimide (NHS) chemistry, with ethanolamine blocking, in a running buffer of 0.01 M HEPES pH 7.4, 0.15 M NaCl, 3 mM EDTA, 0.005% v/v tween 20. […] The running buffer for the kinetic experiments was 10 mM sodium phosphate, 130 mM sodium chloride, 0.05% tween 20, pH 7.1. The surfaces were regenerated after each cycle using two 30 s pulses of 10 mM glycine pH 1.5 at a flow rate of 30 μl/min. Sensogram data was double-referenced and then fitted to a 1:1 Langmuir model using Biacore® T100 evaluation software v2.0.4, to determine the association rate constant (ka), the dissociation rate constant (kd), and the equilibrium dissociation constant (KD).

[10] = target: T3, human CD73 on cells; assay: cell-based or functional assay; remark: listed apart in the source
[11] = target: T3, human CD73 on cells; assay: cell-based or functional assay; remark: listed apart in the source

Binder | Rh [1] [nm] | MW Peak 1 [2] [kDa] | MW Peak 2 [3] [kDa] | Rh [4] [nm] | % internalization, H228 cells [5] [%] | MW Peak 1 [6] [kDa] | MW Peak 2 [6] [kDa] | Rh [7] [nm] | internalization EC50, Calu6 cells, 2 h [8] [nM] | internalization Ymax (% of 100 nM 11F11), Calu6 cells [8] [%] | Kd [9] | koff [9] | kon [9] | % internalization, Calu6 cells [5] [%] | % internalization, H2030 cells [5] [%] | % internalization, HCC15 cells [5] [%] | internalization T1/2, Calu6 cells [5] [min] | internalization T1/2, H228 cells [5] [min] | internalization T1/2, H2030 cells [5] [min] | internalization T1/2, HCC15 cells [5] [min] | other results
B1 | 5.8 | 170 | 530 | 10.8 | -47 |  |  |  |  |  |  |  |  |  |  |  |  |  |  |  | 
B2 | 6.5 | 210 | 3400 | 2.9 | 93 | 2200 | 310 | 23.9 | 0.67 | 99 | 6.2 nM and 8.3 nM | 0.0014 s⁻¹ and 0.0018 s⁻¹ | 220000 M⁻¹ s⁻¹ | 91 | 85 | 91 | 3 | 9.7 | 3.3 | 2.6 | MW Peak 2 [2]: 150 kDa
B3 |  |  |  |  | 92 | 2000 | 320 | 25.6 | 0.87 | 99 | 5.7 nM and 6.8 nM | 0.0014 s⁻¹ and 0.0016 s⁻¹ | 240000 M⁻¹ s⁻¹ and 230000 M⁻¹ s⁻¹ | 91 | 87 | 91 | 3.1 | 9.4 | 4.3 | 3 | MW Peak 3 [6]: 390 kDa
B4 |  |  |  |  |  | 3600 | 1100 | 31.2 |  |  |  |  |  |  |  |  |  |  |  |  | MW Peak 3 [6]: 580 kDa; internalization T1/2, Calu6 [10]: 34 min; internalization T1/2, NCI-H292 [10]: 15.8 min; internalization Ymax, Calu6 [10]: 76.8%; internalization Ymax, NCI-H292 [10]: 77.6%; internalization T1/2, Calu6 [11]: 21 min; internalization T1/2, NCI-H292 [11]: 16.6 min; internalization Ymax, Calu6 [11]: 81%; internalization Ymax, NCI-H292 [11]: 90.3%
